The results in this text go back to article PMC12411348 (2025).

For the experiment, the target named is recombinant human pVHL (CUSABIO) (human, UniProt P40337-1 1-213). In words: SPR. (Surface plasmon resonance follows binding to a sensor surface in real time, without labels.)
Chain of recombinant human pVHL (CUSABIO) (P40337 whole entry): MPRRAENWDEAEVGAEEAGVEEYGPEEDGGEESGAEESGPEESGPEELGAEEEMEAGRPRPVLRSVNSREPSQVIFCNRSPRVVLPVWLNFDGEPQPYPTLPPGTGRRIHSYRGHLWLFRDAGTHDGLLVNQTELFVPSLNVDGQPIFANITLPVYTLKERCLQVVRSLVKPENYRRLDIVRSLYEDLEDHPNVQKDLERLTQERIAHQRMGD

B1: recombinant TCF7L2(1–456) (domain or fragment)
chain: MPQLNGGGGDDLGANDELISFKDEGEQEEKSSENSSAERDLADVKSSLVNESETNQNSSSDSEAERRPPPRSESFRDKSRESLEEAAKRQDGGLFKGPPYPGYPFIMIPDLTSPYLPNGSLSPTARTLHFQSGSTHYSAYKTIEHQIAVQYLQMKWPLLDVQAGSLQSRQALKDARSPSPAHIVSNKVPVVQHPHHVHPLTPLITYSNEHFTPGNPPPHLPADVDPKTGIPRPPHPPDISPYYPLSPGTVGQIPHPLGWLVPQQGQPVYPITTGGFRHPYPTALTVNASMSRFPPHMVPPHHTLHTTGIPHPAIVTPTVKQESSQSDVGSLHSSKHQDSKKEEEKKKPHIKKPLNAFMLYMKEMRAKVVAECTLKESAAINQILGRRWHALSREEQAKYYELARKERQLHMQLYPGWSARDNYGKKKKRKRDKQPGETNEHSECFLNPCLSLPPIT
Turning to B1, the Kd (commonly the concentration at which binding is half-saturated) is 806 nM.
